# Experimental data: patent US20230174575A1 (priority 2020, published 2023)
# Tests used:
# Vero cells = experiment: Cell toxicity against Vero cells by MTT assay; settings: MTT assay
# Description: Cell toxicity was monitored by establishing the effect of lysozyme HCl against Vero cells (epithelial cells of monkey kidneys). The cells were seeded in 96-well plates at the concentration of 1×10^4 cells/well. 24 hours after seeding, the cells were treated with serial dilutions of lysozyme HCl or chloroquine (as control), in a final volume of 200 in triplicate. After 72 hours' incubation at 37° C. with 5% CO2, cell viability was measured by MTT assay (D'Alessandro, M. et al., Differential effects on angiogenesis of two antimalarial compounds, dihydroartemisinin and artemisone: Implications for embryotoxicity, Toxicology. 241 (2007) 66-74. Doi: 10.1016/j.tox.2007.08.084).
# The data were calculated as percentage cell viability using the formula:
# [(absorbance of sample−blank of cell-free sample)/mean absorbance of control of media]×100.
# The cytotoxicity of ovotransferrin and chloroquine (CQ) was measured by MTT assay, similarly to the method used for lysozyme HCl.
# SARS-CoV-2 = type: cell-based; settings: concentrations ranging from 10 mg/ml to 1.25 mg/ml
molecule,measurement,setting,value
"Ovotransferrin: hen egg white protein, product code 501P2001090, produced by Bioseutica BV (protein, UniProt P02789 20-705, looked up) Ovotransferrin: APPKSVIRWCTISSPEEKKCNNLRDLTQQERISLTCVQKATYLDCIKAIANNEADAISLDGGQAFEAGLAPYKLKPIAAEVYEHTEGSTTSYYAVAVVKKGTEFTVNDLQGKTSCHTGLGRSAGWNIPIGTLLHRGAIEWEGIESGSVEQAVAKFFSASCVPGATIEQKLCRQCKGDPKTKCARNAPYSGYSGAFHCLKDGKGDVAFVKHTTVNENAPDQKDEYELLCLDGSRQPVDNYKTCNWARVAAHAVVARDDNKVEDIWSFLSKAQSDFGVDTKSDFHLFGPPGKKDPVLKDLLFKDSAIMLKRVPSLMDSQLYLGFEYYSAIQSMRKDQLTPSPRENRIQWCAVGKDEKSKCDRWSVVSNGDVECTVVDETKDCIIKIMKGEADAVALDGGLVYTAGVCGLVPVMAERYDDESQCSKTDERPASYFAVAVARKDSNVNWNNLKGKKSCHTAVGRTAGWVIPMGLIHNRTGTCNFDEYFSEGCAPGSPPNSRLCQLCQGSGGIPPEKCVASSHEKYFGYTGALRCLVEKGDVAFIQHSTVEENTGGKNKADWAKNLQMDDFELLCTDGRRANVMDYRECNLAEVPTHAVVVRPEKANKIRDLLERQEKRFGVNGSEKSKFMMFESQNKDLLFKDLTKCLFKVREGTTYKEFLGDKFYTVISSLKTCNPSDILQMCSFLEGK",viability compared with control cells,Vero cells; 10 mg/ml,100%
same,cytotoxicity,Vero cells; maximum concentration used (10 mg/ml),non-toxic
same,antiviral activity of ovotransferrin alone,SARS-CoV-2,no antiviral activity was detected
